According to article PMC6604206, “Cascade synthesis of uridine-5′-diphosphate glucuronic acid by coupling multiple whole cells expressing hyperthermophilic enzymes” (Microbial Cell Factories, 2019):

B1: StUSP (Sulfurisphaera tokodaii str. 7) (protein)
chain: MKAFILAAGSGERLEPITHTRPKAFVPILSKPLIEYQIEYLRKCGIRDITVIVSSKNKEYFEKKLKEISIVTQKDDIKGTGAAILSAKFNDEALIIYGDLFFSNEKEICNIITLKENAIIGVKVSNPKDYGVLVLDNQNNLSKIIEKPEIPPSNLINAGIYKLNSDIFTYLDKISISERGELELTDAINLMAKDHRVKVIEYEGYWMDIGKPWNIIDVNKWALDNLVFSQNLGNVEDNVKIKGKVIIEEDAEIKSGTYIEGPVYIGKGSEIGPNSYLRPYTILVEKNKIGASVEVKESVIMEGSKIPHLSYVGDSVIAEDVNFGAGTLIANLRFDEKEVKVNVKGKRISSGRRKLGAFIGGHVRTGINVTILPGVKIGAYARIYPGAVVNRDVGYGEFFKV

Experiments:
PiUDH = target: T1, PiUDH (Pyrobaculum islandicum, UniProt A1RUM9); assay: whole-cell conversion, PAMN-HPLC and ESI-MS of UDP-GlcA; format: cell-based; settings: BL21-PiUDH whole cells, NAD+ varied 0-1.2 mM, 2.3 mM UDP-Glc, sodium phosphate
T1 construct: gene Pisl_1505; N-terminal His6 tag, codon-optimised gene, pET15b, whole E. coli BL21(DE3) cells

purified protein = substrate: O=P(O)(O)O[C@H]1O[C@H](CO)[C@@H](O)[C@H](O)[C@H]1O; assay: purified protein; format: biochemical, Sulfurisphaera tokodaii; settings: 3 mM UTP, 20 mM MgCl2, 50 mM Tris-HCl pH 7.5, 80 °C (also measured at 37 °C)

T1 sequence (A1RUM9 entry or part of it): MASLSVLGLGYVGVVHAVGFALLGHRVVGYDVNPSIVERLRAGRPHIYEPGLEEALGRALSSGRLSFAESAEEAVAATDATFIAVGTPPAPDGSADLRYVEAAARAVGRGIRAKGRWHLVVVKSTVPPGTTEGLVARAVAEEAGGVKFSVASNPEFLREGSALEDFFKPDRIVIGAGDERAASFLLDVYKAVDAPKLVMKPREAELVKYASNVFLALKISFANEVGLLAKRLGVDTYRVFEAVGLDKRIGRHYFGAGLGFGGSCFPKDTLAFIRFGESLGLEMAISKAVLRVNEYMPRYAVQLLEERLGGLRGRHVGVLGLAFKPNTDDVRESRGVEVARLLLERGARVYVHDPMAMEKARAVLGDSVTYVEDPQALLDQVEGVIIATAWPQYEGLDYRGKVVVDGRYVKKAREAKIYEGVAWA

Molecule	whole-cell conversion, PAMN-HPLC and ESI-MS of UDP-GlcA (PiUDH)	Km (purified protein)	Vmax (purified protein)
NC(=O)c1ccc[n+]([C@@H]2O[C@H](COP(=O)(O)OP(=O)(O)OC[C@H]3O[C@@H](n4cnc5c(N)ncnc54)[C@H](O)[C@@H]3O)[C@@H](O)[C@H]2O)c1 [NAD^+]	The synthetic efficiency showed a positive correlation with the concentration of NAD^+	–	–
B1	–	1474 ± 225 µM	14500 ± 227 µmol/min/mg
